Data taken from PMC2270906, “The CD81 Partner EWI-2wint Inhibits Hepatitis C Virus Entry” (PLoS ONE, 2008).

How the values were obtained:
[1] = target: HCV E1E2 heterodimers (expressed from recombinant adenovirus Ad/E1E2p7NS2) (hepatitis C virus); test: pull-down; E1E2 on mAb H53 beads; Huh-7/EWI-2FLAG^fur cells lysed in Bj/EDTA, ratio of the CD81 band to that in TX/EDTA
[2] = target: HCV E1E2 heterodimers (expressed from recombinant adenovirus Ad/E1E2p7NS2) (hepatitis C virus); test: pull-down; E1E2 on mAb H53 beads; Huh-7/pcDNA3.1 cells lysed in Bj/EDTA, ratio of the CD81 band to that in TX/EDTA
[3] = target: T1, CD81 (endogenous, human cells) (human (endogenous in Daudi, Ramos, …, UniProt P60033 1-236)); test: cell-based or functional assay
T1 sequence: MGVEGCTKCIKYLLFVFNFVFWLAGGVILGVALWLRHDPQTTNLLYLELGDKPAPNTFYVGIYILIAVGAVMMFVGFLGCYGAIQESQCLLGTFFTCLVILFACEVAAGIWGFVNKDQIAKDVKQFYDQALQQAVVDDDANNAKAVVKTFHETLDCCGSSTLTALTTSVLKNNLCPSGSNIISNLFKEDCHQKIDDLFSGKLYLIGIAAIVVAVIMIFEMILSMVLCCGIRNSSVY

B1: CD81 (endogenous, human cells) (natural protein)
chain: MGVEGCTKCIKYLLFVFNFVFWLAGGVILGVALWLRHDPQTTNLLYLELGDKPAPNTFYVGIYILIAVGAVMMFVGFLGCYGAIQESQCLLGTFFTCLVILFACEVAAGIWGFVNKDQIAKDVKQFYDQALQQAVVDDDANNAKAVVKTFHETLDCCGSSTLTALTTSVLKNNLCPSGSNIISNLFKEDCHQKIDDLFSGKLYLIGIAAIVVAVIMIFEMILSMVLCCGIRNSSVY
In the case of B1, the ratio [CD81 band intensity in E1E2 IP in Bj/EDTA buffer]/[CD81 band intensity in E1E2 IP in TX/EDTA buffer] [1] is reported as 0.27 and the ratio [CD81 band intensity in E1E2 IP in Bj/EDTA buffer]/[CD81 band intensity in E1E2 IP in TX/EDTA buffer] [2] is reported as 0.84.

B2: EWI-2wint with the C-terminal FLAG epitope, produced by furin cleavage of EWI-2FLAG^fur in Huh-7 cells (domain or fragment)
chain: QAPTSPPRMTVHEGQELALGCLARTSTQKHTHLAVSFGRSVPEAPVGRSTLQEVVGIRSDLAVEAGAPYAERLAAGELRLGKEGTDRYRMVVGGAQAGDAGTYHCTAAEWIQDPDGSWAQIAEKRAVLAHVDVQTLSSQLAVTVGPGERRIGPGEPLELLCNVSGALPPAGRHAAYSVGWEMAPAGAPGPGRLVAQLDTEGVGSLGPGYEGRHIAMEKVASRTYRLRLEAARPGDAGTYRCLAKAYVRGSGTRLREAASARSRPLPVHVREEGVVLEAVAWLAGGTVYRGETASLLCNISVRGGPPGLRLAASWWVERPEDGELSSVPAQLVGGVGQDGVAELGVRPGGGPVSVELVGPRSHRLRLHSLGPEDEGVYHCAPSAWVQHADYSWYQAGSARSGPVTVYPYMHALDTLFVPLLVGTGVALVTGATVLGTITCCFMKRLRKR
With B2 the “inhibition of the infectivity of HCVcc expressing Renilla luciferase on Huh-7 cells expressing EWI-2FLAG^fur (clone A6), relative to Huh-7 cells; the pair that is blocked: HCV glycoproteins with CD81” value [3] was 80%.
